In this test the target is T1, c-Met on EBC-1 cells (UniProt P08581 25-1390, limits assumed).
T1 construct: whole, on cells; EBC-1 is a human lung cancer line; also called c-Met on the cell surface
In words: flow cytometry on EBC-1 cells; antibody bound at pH 7.4, cells fixed, then buffers of pH 1.5 to 7.4. As for the experimental part: In order to examine the degree of influence of pH conditions on the binding of anti-c-Met antibody and c-Met, the antibody was reacted with c-Met to form a binding therebetween, and then, treated with buffer with various pH to change the pH conditions, and then, the amount of the antibody which maintain the binding to the antigen (c-Met) at a certain pH was measured.
In particular, EBC-1 cells (ATCC) were counted and seeded in e-tubes at the amount of about 3×10⁵ cells per tube. As a medium, RPMI-1640 (Gibco) was employed. The cell culture was washed with phosphate buffer saline (PBS; pH 7.4) to remove the medium, and treated with each of c-Met antibodies A, B, and C, and c-Met bispecific antibody A, provided in Example 1, at the amount of 1 μg/ml per a tube, and then, kept in ice for 30 minutes. The obtained cells were treated with 4% formaldehyde for 10 minutes to be fixed. After washing with PBS(pH7.4), the cells treated with FACS buffer with various pH (0.2%(v/v) FBS (Fetal bovine serum) in PBS, pH 1.5, 2.0, 2.5, 3.0, 4.0, 5.0, 6.0, or 7.4) and kept in ice for 5 minutes. […] The c-Met antibody attached to cell surface was quantified by Flow cytometry (BD, FACS Cantoll).

T1 sequence (P08581 25-1390 limits assumed): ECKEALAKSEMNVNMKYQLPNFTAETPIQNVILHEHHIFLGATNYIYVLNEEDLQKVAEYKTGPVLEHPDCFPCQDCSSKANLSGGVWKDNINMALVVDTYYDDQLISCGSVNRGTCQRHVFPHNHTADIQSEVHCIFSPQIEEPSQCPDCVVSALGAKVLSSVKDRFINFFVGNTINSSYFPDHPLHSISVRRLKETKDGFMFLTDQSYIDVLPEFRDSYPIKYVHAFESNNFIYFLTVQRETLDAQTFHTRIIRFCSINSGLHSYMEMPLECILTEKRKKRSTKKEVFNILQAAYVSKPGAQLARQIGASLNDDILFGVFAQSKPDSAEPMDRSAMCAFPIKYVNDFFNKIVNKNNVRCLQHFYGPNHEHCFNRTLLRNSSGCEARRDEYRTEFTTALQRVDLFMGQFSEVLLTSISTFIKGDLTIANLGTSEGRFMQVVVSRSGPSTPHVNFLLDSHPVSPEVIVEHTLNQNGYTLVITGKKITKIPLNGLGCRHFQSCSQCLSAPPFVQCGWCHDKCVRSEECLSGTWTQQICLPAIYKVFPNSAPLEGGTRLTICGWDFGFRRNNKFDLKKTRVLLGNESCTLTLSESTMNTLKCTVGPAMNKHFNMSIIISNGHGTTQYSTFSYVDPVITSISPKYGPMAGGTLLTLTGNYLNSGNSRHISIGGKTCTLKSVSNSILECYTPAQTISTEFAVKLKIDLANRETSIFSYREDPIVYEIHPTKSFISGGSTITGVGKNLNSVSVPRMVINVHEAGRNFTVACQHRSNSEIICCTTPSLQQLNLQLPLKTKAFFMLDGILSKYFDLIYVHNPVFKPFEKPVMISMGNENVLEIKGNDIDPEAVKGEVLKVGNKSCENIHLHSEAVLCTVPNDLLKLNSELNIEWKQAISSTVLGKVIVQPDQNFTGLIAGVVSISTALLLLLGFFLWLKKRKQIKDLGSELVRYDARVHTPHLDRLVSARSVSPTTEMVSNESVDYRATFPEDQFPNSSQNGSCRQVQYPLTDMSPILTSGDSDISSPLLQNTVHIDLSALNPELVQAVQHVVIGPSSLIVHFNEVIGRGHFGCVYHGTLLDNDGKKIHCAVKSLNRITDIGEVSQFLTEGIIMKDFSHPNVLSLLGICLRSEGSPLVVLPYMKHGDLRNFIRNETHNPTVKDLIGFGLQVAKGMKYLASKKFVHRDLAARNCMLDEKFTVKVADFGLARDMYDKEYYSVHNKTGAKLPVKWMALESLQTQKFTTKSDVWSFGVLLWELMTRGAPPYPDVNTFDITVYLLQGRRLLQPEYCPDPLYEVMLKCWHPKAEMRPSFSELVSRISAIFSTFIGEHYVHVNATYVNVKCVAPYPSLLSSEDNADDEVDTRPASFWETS

B1: Anti-c-Met/anti-EGFR bispecific antibody A (bispecific antibody, human IgG2, kappa)
heavy: EVQLVESGGGLVQPGGSLRLSCAASGFTFTDYYMSWVRQAPGKGLEWLGFIRNKANGYTTEYSASVKGRFTISRDNSKNTLYLQMNSLRAEDTAVYYCARDNWFAYWGQGTLVTVSSASTKGPSVFPLAPCSRSTSESTAALGCLVKDYFPEPVTVSWNSGALTSGVHTFPAVLQSSGLYSLSSVVTVPSSNFGTQTYTCNVDHKPSNTKVDKTVERKCCVECPPCPAPPVAGPSVFLFPPKPKDTLMISRTPEVTCVVVDVSHEDPEVQFNWYVDGVEVHNAKTKPREEQFNSTFRVVSVLTVVHQDWLNGKEYKCKVSNKGLPAPIEKTISKTKGQPREPQVYTLPPSREEMTKNQVSLTCLVKGFYPSDIAVEWESNGQPENNYKTTPPMLDSDGSFFLYSKLTVDKSRWQQGNVFSCSVMHEALHNHYTQKSLSLSPGKGGGGSGGGGSEVQLLESGGGLVQPGGSLRLSCAASGFTFSNYDMSWVRQAPGKCLEWVSGISHSSGSKYYADSVKGRFTISRDNSKNTLYLQMNSLRAEDTAVYYCAKDATPRPLKPFDYWGQGTLVTVSSGGGGSGGGGSGGGGSQSVLTQPPSASGTPGQRVTISCTGSSSNIGNNDVSWYQQLPGTAPKLLIYDDNKRPSGVPDRFSGSKSGTSASLAISGLRSEDEADYYCGSWDASLNAYVFGCGTKLTVLG
light: DIQMTQSPSSLSASVGDRVTITCKSSQSLLASGNQNNYLAWYQQKPGKAPKMLIIWASTRVSGVPSRFSGSGSGTDFTLTISSLQPEDFATYYCQQSYSRPYTFGQGTKVEIKRTVAAPSVFIFPPSDEQLKSGTASVVCLLNNFYPREAKVQWKVDNALQSGNSQESVTEQDSKDSTYSLSSTLTLSKADYEKHKVYACEVTHQGLSSPVTKSFNRGEC
notes: Anti-c-Met antibody A (IgG2) with an anti-EGFR scFv (VH-linker-VL) linked to the C-terminus of its Fc; also called c-Met bispecific antibody A
Consider B1, for which the binding result is listed as “binds”.

B2: Anti-c-Met antibody A (antibody, human IgG2, kappa, V domains shown)
VH: EVQLVESGGGLVQPGGSLRLSCAASGFTFTDYYMSWVRQAPGKGLEWLGFIRNKANGYTTEYSASVKGRFTISRDNSKNTLYLQMNSLRAEDTAVYYCARDNWFAYWGQGTLVTVSS
VL: DIQMTQSPSSLSASVGDRVTITCKSSQSLLASGNQNNYLAWYQQKPGKAPKMLIIWASTRVSGVPSRFSGSGSGTDFTLTISSLQPEDFATYYCQQSYSRPYTFGQGTKVEIKR
notes: IgG2 antibody
Take B2: the binding result is “binds”.

Values taken from US20160161500A1, “METHOD OF SCREENING AN ANTIBODY” (SAMSUNG ELECTRONICS CO., LTD., priority 2014, published 2016).
